{"source": "patent US6835389B1", "about": "“Powder Composition for nasal administration” (Teijin Limited, priority 1998, dated 2004)", "origin": "cited, not measured here", "conditions": "10 units of insulin to rabbits, nasal, Example 4 of Kokoku No. 62-42888", "data": [{"substance": "insulin", "values": [{"measurement": "absorption rate calculated from the AUC", "value": "≤ 10", "unit": "%"}, {"measurement": "maximum blood concentration", "value": "≤ 200", "unit": "μU/ml"}, {"measurement": "maximum blood concentration relative to that of the injection administration", "value": "about 20%"}]}]}
